This is an account of results in paper PMC7033585.

The target in experiment [1] is YeeF-CT^H581A, point variant of the C-terminal toxic domain of YeeF (Bacillus subtilis subsp. spizizenii str. W23) (UniProt O31506). Briefly: ITC; YeeF-CT^(M) 10 μM in the cell, YezG 300 μM in the syringe; 25°C; 20 mM HEPES pH 7.5, 150 mM NaCl; two binding site model. (In general: Isothermal titration calorimetry measures the heat released or taken up as one component is titrated into another.)

Experiment [2] has the same target. Briefly: AUC; sedimentation velocity of mixtures: YeeF-CT fixed, increasing YezG, incubated at 4°C for 1 h beforehand; 20 mM HEPES pH 7.5, 150 mM NaCl; 25°C.
Experiment [3] addresses CdiI536 (Escherichia coli) (UniProt Q0T964). The settings on record: cited from earlier work.
The target of experiment [4] is YeeF-CT^H581A, C-terminal toxic domain of YeeF (Ile527 to Gly669) with the point mutation H581A (Bacillus subtilis subsp. spizizenii str. W23) (UniProt O31506). Briefly: AUC; sedimentation velocity of each protein alone at 8, 16 and 32 μM; 20 mM HEPES pH 7.5, 150 mM NaCl; 40,000 rpm, 25°C; c(s) fit with SEDFIT.
The target in experiment [5] is YeeF-CT^H581A, point variant of the C-terminal toxic domain of YeeF (Bacillus subtilis subsp. spizizenii str. W23) (UniProt O31506). The experiment is described as above.

In experiment [1], “YezG immunity protein (from UniProt C0H3X4 1-151) (natural protein)” yielded a KD1 (first site of the two-site fit) of 29.4 nM and a KD2 (second site of the two-site fit) of 91.7 nM. Further, the stoichiometry N (YezG monomers per YeeF-CT dimer) in experiment [2] was found to be 2. For orientation: Kd means a measure of binding affinity in units of concentration. CdiA-CT536 CT (from UniProt Q0T963): the Kd in experiment [3] is 26.4 nM. In general, stoichiometry N refers to a count of units in the complex or per binding partner. The substance “YeeF-CT^H581A, C-terminal toxic domain of YeeF (Ile527 to Gly669) with the point mutation H581A (from UniProt O31506 527-669) (domain or fragment)” showed a stoichiometry N in experiment [4] of 2.

As to “YeeF-CT^H581A, point variant of the C-terminal toxic domain of YeeF (from UniProt O31506 527-669) (domain or fragment)”, the stoichiometry N in experiment [5] is 2.
